In patent publication US20100323957A1 (University of California, published 2010):

Target: wild-type EGFR kinase domain (residues 672-998 of human EGFR) with N-terminal 6-His tag, linker and TEV site (human, UniProt P00533 672-998)
Assay: cell-based or functional assay

For SYLNGVMPPTQSFAPDPKYVSSKAL [25-residue MIG6 peptide (residues 340-364)], the “IC50, inhibition of activated EGFR kinase” value was ~100 µM.
